From patent US11814435B2, “Therapeutic antibodies and their uses” (PFIZER INC., priority 2015, dated 2023)

How the values were obtained:
hBCMA (human BCMA) = target: T1, hBCMA (human BCMA) (Homo sapiens, UniProt Q02223); experiment: Kinetics and affinity of hBCMA/human IgG interactions by SPR (Bio-Rad Proteon XPR36); assay type: binding; conditions: huBCMA
T1 sequence (Q02223 1-184): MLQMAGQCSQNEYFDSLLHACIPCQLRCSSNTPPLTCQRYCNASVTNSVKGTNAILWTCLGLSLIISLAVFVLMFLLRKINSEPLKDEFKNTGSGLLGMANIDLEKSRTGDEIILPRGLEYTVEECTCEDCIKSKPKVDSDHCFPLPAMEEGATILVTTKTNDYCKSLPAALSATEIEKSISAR
Description: All experiments were performed on a Bio-Rad Proteon XPR36 surface Plasmon resonance biosensor (Bio-Rad, Hercules, Calif.). An array of anti-BCMA antibodies was prepared using an amine-coupling method on a Bio-Rad GLC Sensor Chip similar to that described in Abdiche, et al., Anal. Biochem. 411, 139-151 (2011). The analysis temperature for the immobilization was 25° C. and the running buffer was HBS-T+(10 mM HEPES, 150 mM NaCl, 0.05% Tween-20, pH 7.4). Channels were activated in the analyte (horizontal) direction by injecting a mixture of 1 mM ECD and 0.25 mM NHS for 3 minutes at a flow rate of 30 μL/min. IgGs were immobilized on the activated spots by injecting them in the ligand (vertical) direction at 20 μg/mL in 10 mM Acetate pH 4.5 buffer for 1.5 minutes at […]. The activated surfaces were blocked by injecting 1M ethanolamine, pH 8.5 in the analyte direction for 3 minutes at 30 μL/min.
The analysis temperature for the hBCMA binding analysis was 37° C. or 25° C. in a running buffer of HBS-T+, supplemented with 1 mg/mL BSA. A kinetic titration method was employed for the interaction analysis as described in Abdiche, et al. The hBCMA (human BCMA) analyte was injected in the analyte direction using a series of injections from low to high concentration. The concentrations used were 0.08 nM, 0.4 nM, 2 nM, 10 nM and 50 nM (a 5-membered series, with a 5-fold dilution factor and top concentration of 50 nM). The association time for a given analyte dilution was two minutes. Immediately after the 50 nM hBCMA injection, dissociation was monitored for 2 hours. Prior to the hBCMA analyte injections, buffer was injected 5 times using the same association and dissociation times at the hBCMA analyte cycles to prepare a buffer blank sensorgram for double-referencing purposes (double referencing as described in Myszka, J. Mol. Recognit. 12, 279-284 (1999).
The sensorgrams were double-referenced and fit to a 1:1 Langmuir with mass transport kinetic titration model in BIAevaluation Software version 4.1.1 (GE Lifesciences, Piscataway, N.J.). The sensorgrams and fits are shown in FIG. 1, and the kinetics and affinity parameters for various anti-BCMA antibodies of the present invention are shown in Tables 6A-6C.

cyBCMA = experiment: Kinetics and affinity of cyBCMA/human IgG interactions by SPR (Bio-Rad Proteon XPR36); assay type: binding, cynomolgus

B1: L3.PY/L3.KF/H3.YA: anti-BCMA antibody (antibody, V domains shown)
VH: EVQLLESGGGLVQPGGSLRLSCAASGFTFGSYAMTWVRQAPGKGLEWVSAISGSGGNTFYADSVKGRFTISRDNSKNTLYLQMNSLRAEDTAVYYCARVSPIYAGMDYWGQGTLVTVSS
VL: EIVLTQSPGTLSLSPGERATLSCRASQSVSSSYLAWYQQKPGQAPRLLIYGASSRATGIPDRFSGSGSGTDFTLTISRLEPEDFAVYYCKFYPYPPSFTFGQGTKVEIK
ka (1/Ms) huBCMA @ 37° C. (hBCMA (human BCMA)): 3.12e+06 M⁻¹ s⁻¹
kd (1/s) huBCMA @37° C. (hBCMA (human BCMA)): 0.00147 s⁻¹
ka (1/Ms) cyBCMA @ 37° C. (cyBCMA): 2.1e+06 M⁻¹ s⁻¹
kd (1/s) cyBCMA @37° C. (cyBCMA): 0.00796 s⁻¹

B2: L1.LGF/L3.KW/H3.AP: anti-BCMA antibody (antibody, V domains shown)
VH: EVQLLESGGGLVQPGGSLRLSCAASGFTFGSYAMTWVRQAPGKGLEWVSAISGSGGNTFYADSVKGRFTISRDNSKNTLYLQMNSLRAEDTAVYYCARVSPIAAPMDYWGQGTLVTVSS
VL: EIVLTQSPGTLSLSPGERATLSCRASQSLGSFYLAWYQQKPGQAPRLLIYGASSRATGIPDRFSGSGSGTDFTLTISRLEPEDFAVYYCKHYGWPPSFTFGQGTKVEIK
ka (1/Ms) huBCMA @ 25° C. (hBCMA (human BCMA)): 928000 M⁻¹ s⁻¹
kd (1/s) huBCMA @25° C. (hBCMA (human BCMA)): 0.00227 s⁻¹
ka (1/Ms) cyBCMA @ 25° C. (cyBCMA): 554000 M⁻¹ s⁻¹
kd (1/s) cyBCMA @25° C. (cyBCMA): 0.0154 s⁻¹

B3: L1.GDF/L3.KW/H3.AL: anti-BCMA antibody (antibody, V domains shown)
VH: EVQLLESGGGLVQPGGSLRLSCAASGFTFGSYAMTWVRQAPGKGLEWVSAISGSGGNTFYADSVKGRFTISRDNSKNTLYLQMNSLRAEDTAVYYCARVSPIAALMDYWGQGTLVTVSS
VL: EIVLTQSPGTLSLSPGERATLSCRASQSVGDFYLAWYQQKPGQAPRLLIYGASSRATGIPDRFSGSGSGTDFTLTISRLEPEDFAVYYCKHYGWPPSFTFGQGTKVEIK
ka (1/Ms) huBCMA @ 25° C. (hBCMA (human BCMA)): 445000 M⁻¹ s⁻¹
kd (1/s) huBCMA @25° C. (hBCMA (human BCMA)): 0.0039 s⁻¹
ka (1/Ms) cyBCMA @ 25° C. (cyBCMA): 318000 M⁻¹ s⁻¹
kd (1/s) cyBCMA @25° C. (cyBCMA): 0.018 s⁻¹

B4: L1.GDF/L3.NY/H3.AL: anti-BCMA antibody (antibody, V domains shown)
VH: EVQLLESGGGLVQPGGSLRLSCAASGFTFGSYAMTWVRQAPGKGLEWVSAISGSGGNTFYADSVKGRFTISRDNSKNTLYLQMNSLRAEDTAVYYCARVSPIAALMDYWGQGTLVTVSS
VL: EIVLTQSPGTLSLSPGERATLSCRASQSVGDFYLAWYQQKPGQAPRLLIYGASSRATGIPDRFSGSGSGTDFTLTISRLEPEDFAVYYCQHYNYPPSFTFGQGTKVEIK
ka (1/Ms) huBCMA @ 25° C. (hBCMA (human BCMA)): 907000 M⁻¹ s⁻¹
kd (1/s) huBCMA @25° C. (hBCMA (human BCMA)): 0.00403 s⁻¹
ka (1/Ms) cyBCMA @ 25° C. (cyBCMA): 900000 M⁻¹ s⁻¹
kd (1/s) cyBCMA @25° C. (cyBCMA): 0.0219 s⁻¹

B5: L3.PY/L3.KF/H3.AE: anti-BCMA antibody (antibody, V domains shown)
VH: EVQLLESGGGLVQPGGSLRLSCAASGFTFGSYAMTWVRQAPGKGLEWVSAISGSGGNTFYADSVKGRFTISRDNSKNTLYLQMNSLRAEDTAVYYCARVSPIAAEMDYWGQGTLVTVSS
VL: EIVLTQSPGTLSLSPGERATLSCRASQSVSSSYLAWYQQKPGQAPRLLIYGASSRATGIPDRFSGSGSGTDFTLTISRLEPEDFAVYYCKFYPYPPSFTFGQGTKVEIK
ka (1/Ms) huBCMA @ 37° C. (hBCMA (human BCMA)): 3.07e+06 M⁻¹ s⁻¹
kd (1/s) huBCMA @37° C. (hBCMA (human BCMA)): 0.00155 s⁻¹
ka (1/Ms) cyBCMA @ 37° C. (cyBCMA): 1.85e+06 M⁻¹ s⁻¹
kd (1/s) cyBCMA @37° C. (cyBCMA): 0.00564 s⁻¹

B6: L1.LGF/L3.KW/H3.AL: anti-BCMA antibody (antibody, V domains shown)
VH: EVQLLESGGGLVQPGGSLRLSCAASGFTFGSYAMTWVRQAPGKGLEWVSAISGSGGNTFYADSVKGRFTISRDNSKNTLYLQMNSLRAEDTAVYYCARVSPIAALMDYWGQGTLVTVSS
VL: EIVLTQSPGTLSLSPGERATLSCRASQSLGSFYLAWYQQKPGQAPRLLIYGASSRATGIPDRFSGSGSGTDFTLTISRLEPEDFAVYYCKHYGWPPSFTFGQGTKVEIK
ka (1/Ms) huBCMA @ 25° C. (hBCMA (human BCMA)): 428000 M⁻¹ s⁻¹
kd (1/s) huBCMA @25° C. (hBCMA (human BCMA)): 0.00123 s⁻¹
ka (1/Ms) cyBCMA @ 25° C. (cyBCMA): 290000 M⁻¹ s⁻¹
kd (1/s) cyBCMA @25° C. (cyBCMA): 0.0121 s⁻¹

B7: L1.LGF/L3.NY/H3.AL: anti-BCMA antibody (antibody, V domains shown)
VH: EVQLLESGGGLVQPGGSLRLSCAASGFTFGSYAMTWVRQAPGKGLEWVSAISGSGGNTFYADSVKGRFTISRDNSKNTLYLQMNSLRAEDTAVYYCARVSPIAALMDYWGQGTLVTVSS
VL: EIVLTQSPGTLSLSPGERATLSCRASQSLGSFYLAWYQQKPGQAPRLLIYGASSRATGIPDRFSGSGSGTDFTLTISRLEPEDFAVYYCQHYNYPPSFTFGQGTKVEIK
ka (1/Ms) huBCMA @ 25° C. (hBCMA (human BCMA)): 763000 M⁻¹ s⁻¹
kd (1/s) huBCMA @25° C. (hBCMA (human BCMA)): 0.00097 s⁻¹
ka (1/Ms) cyBCMA @ 25° C. (cyBCMA): 635000 M⁻¹ s⁻¹
kd (1/s) cyBCMA @25° C. (cyBCMA): 0.0148 s⁻¹

B8: L1.GDF/L3.KW/H3.AP: anti-BCMA antibody (antibody, V domains shown)
VH: EVQLLESGGGLVQPGGSLRLSCAASGFTFGSYAMTWVRQAPGKGLEWVSAISGSGGNTFYADSVKGRFTISRDNSKNTLYLQMNSLRAEDTAVYYCARVSPIAAPMDYWGQGTLVTVSS
VL: EIVLTQSPGTLSLSPGERATLSCRASQSVGDFYLAWYQQKPGQAPRLLIYGASSRATGIPDRFSGSGSGTDFTLTISRLEPEDFAVYYCKHYGWPPSFTFGQGTKVEIK
ka (1/Ms) huBCMA @ 25° C. (hBCMA (human BCMA)): 1.17e+06 M⁻¹ s⁻¹
kd (1/s) huBCMA @25° C. (hBCMA (human BCMA)): 0.00461 s⁻¹
ka (1/Ms) cyBCMA @ 25° C. (cyBCMA): 814000 M⁻¹ s⁻¹
kd (1/s) cyBCMA @25° C. (cyBCMA): 0.0203 s⁻¹

B9: L1.LGF/L3.PY/H3.AP: anti-BCMA antibody (antibody, V domains shown)
VH: EVQLLESGGGLVQPGGSLRLSCAASGFTFGSYAMTWVRQAPGKGLEWVSAISGSGGNTFYADSVKGRFTISRDNSKNTLYLQMNSLRAEDTAVYYCARVSPIAAPMDYWGQGTLVTVSS
VL: EIVLTQSPGTLSLSPGERATLSCRASQSLGSFYLAWYQQKPGQAPRLLIYGASSRATGIPDRFSGSGSGTDFTLTISRLEPEDFAVYYCQHYPYPPSFTFGQGTKVEIK
ka (1/Ms) huBCMA @ 25° C. (hBCMA (human BCMA)): 457000 M⁻¹ s⁻¹
kd (1/s) huBCMA @25° C. (hBCMA (human BCMA)): 0.000969 s⁻¹
ka (1/Ms) cyBCMA @ 25° C. (cyBCMA): 364000 M⁻¹ s⁻¹
kd (1/s) cyBCMA @25° C. (cyBCMA): 0.013 s⁻¹

B10: L1.LGF/L3.NY/H3.AP: anti-BCMA antibody (antibody, V domains shown)
VH: EVQLLESGGGLVQPGGSLRLSCAASGFTFGSYAMTWVRQAPGKGLEWVSAISGSGGNTFYADSVKGRFTISRDNSKNTLYLQMNSLRAEDTAVYYCARVSPIAAPMDYWGQGTLVTVSS
VL: EIVLTQSPGTLSLSPGERATLSCRASQSLGSFYLAWYQQKPGQAPRLLIYGASSRATGIPDRFSGSGSGTDFTLTISRLEPEDFAVYYCQHYNYPPSFTFGQGTKVEIK
ka (1/Ms) huBCMA @ 25° C. (hBCMA (human BCMA)): 936000 M⁻¹ s⁻¹
kd (1/s) huBCMA @25° C. (hBCMA (human BCMA)): 0.000533 s⁻¹
ka (1/Ms) cyBCMA @ 25° C. (cyBCMA): 830000 M⁻¹ s⁻¹
kd (1/s) cyBCMA @25° C. (cyBCMA): 0.00557 s⁻¹

B11: L3.PY/L3.KF/H3.TAQ: anti-BCMA antibody (antibody, V domains shown)
VH: EVQLLESGGGLVQPGGSLRLSCAASGFTFGSYAMTWVRQAPGKGLEWVSAISGSGGNTFYADSVKGRFTISRDNSKNTLYLQMNSLRAEDTAVYYCTRVSPIAAQMDYWGQGTLVTVSS
VL: EIVLTQSPGTLSLSPGERATLSCRASQSVSSSYLAWYQQKPGQAPRLLIYGASSRATGIPDRFSGSGSGTDFTLTISRLEPEDFAVYYCKFYPYPPSFTFGQGTKVEIK
ka (1/Ms) huBCMA @ 37° C. (hBCMA (human BCMA)): 2.82e+06 M⁻¹ s⁻¹
kd (1/s) huBCMA @37° C. (hBCMA (human BCMA)): 0.00162 s⁻¹
ka (1/Ms) cyBCMA @ 37° C. (cyBCMA): 2.01e+06 M⁻¹ s⁻¹
kd (1/s) cyBCMA @37° C. (cyBCMA): 0.00191 s⁻¹
